# According to US20100184636:
# Target: endogenous raptor (UniProt Q8N122)
# Sequence (Q8N122 whole entry, looked up): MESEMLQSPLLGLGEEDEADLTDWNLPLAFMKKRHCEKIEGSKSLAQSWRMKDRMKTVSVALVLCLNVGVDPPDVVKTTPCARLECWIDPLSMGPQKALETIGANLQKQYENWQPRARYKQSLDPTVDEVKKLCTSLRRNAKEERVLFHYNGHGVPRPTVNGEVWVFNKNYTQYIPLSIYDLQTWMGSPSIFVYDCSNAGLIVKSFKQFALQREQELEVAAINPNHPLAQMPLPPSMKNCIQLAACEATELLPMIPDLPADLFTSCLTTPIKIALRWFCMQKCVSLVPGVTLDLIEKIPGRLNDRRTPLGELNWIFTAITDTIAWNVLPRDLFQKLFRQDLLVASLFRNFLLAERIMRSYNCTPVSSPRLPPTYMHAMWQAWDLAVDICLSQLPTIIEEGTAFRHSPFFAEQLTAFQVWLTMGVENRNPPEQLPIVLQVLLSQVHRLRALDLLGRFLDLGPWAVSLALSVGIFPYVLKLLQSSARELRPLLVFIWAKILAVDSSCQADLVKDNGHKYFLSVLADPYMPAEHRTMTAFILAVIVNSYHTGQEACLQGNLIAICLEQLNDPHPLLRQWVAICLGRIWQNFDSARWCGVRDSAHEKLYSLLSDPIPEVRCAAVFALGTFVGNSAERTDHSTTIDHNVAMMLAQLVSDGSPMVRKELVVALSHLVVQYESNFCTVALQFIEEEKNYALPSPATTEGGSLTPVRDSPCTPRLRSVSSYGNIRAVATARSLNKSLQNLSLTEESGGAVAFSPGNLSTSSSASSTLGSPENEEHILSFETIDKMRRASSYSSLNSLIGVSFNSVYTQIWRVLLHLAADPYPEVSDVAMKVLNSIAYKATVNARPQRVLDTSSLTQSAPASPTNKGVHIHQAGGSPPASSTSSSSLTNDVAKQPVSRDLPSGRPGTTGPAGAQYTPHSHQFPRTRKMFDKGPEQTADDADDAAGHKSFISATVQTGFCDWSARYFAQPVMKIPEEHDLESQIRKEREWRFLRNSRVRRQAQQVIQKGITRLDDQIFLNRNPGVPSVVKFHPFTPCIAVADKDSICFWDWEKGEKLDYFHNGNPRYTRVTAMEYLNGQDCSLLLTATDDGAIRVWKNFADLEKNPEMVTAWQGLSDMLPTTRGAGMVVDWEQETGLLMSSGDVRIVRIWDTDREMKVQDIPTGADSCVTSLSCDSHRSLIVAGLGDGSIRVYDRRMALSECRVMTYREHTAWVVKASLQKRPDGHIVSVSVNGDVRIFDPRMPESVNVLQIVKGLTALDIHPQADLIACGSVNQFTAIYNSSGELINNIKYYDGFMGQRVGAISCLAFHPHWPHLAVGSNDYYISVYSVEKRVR
substance,measurement,value
"phospholipase D2, wild type (PLD2^wt)",exogenous PA-dependent phosphorylation of S6K1 (add-back),"the exogenous PA-dependent phosphorylation of S6K1 was rescued by PLD2^wt and PLD2^K758R, but not by PLD2^F265A and PLD2^E266R"
